The results in this text go back to patent US20200230184A1.

This assay concerns the target human ApoB100 (human) (UniProt P04114). In words: cell-based or functional assay.
UniProt P04114, sequence (P04114 28-4563 limits assumed): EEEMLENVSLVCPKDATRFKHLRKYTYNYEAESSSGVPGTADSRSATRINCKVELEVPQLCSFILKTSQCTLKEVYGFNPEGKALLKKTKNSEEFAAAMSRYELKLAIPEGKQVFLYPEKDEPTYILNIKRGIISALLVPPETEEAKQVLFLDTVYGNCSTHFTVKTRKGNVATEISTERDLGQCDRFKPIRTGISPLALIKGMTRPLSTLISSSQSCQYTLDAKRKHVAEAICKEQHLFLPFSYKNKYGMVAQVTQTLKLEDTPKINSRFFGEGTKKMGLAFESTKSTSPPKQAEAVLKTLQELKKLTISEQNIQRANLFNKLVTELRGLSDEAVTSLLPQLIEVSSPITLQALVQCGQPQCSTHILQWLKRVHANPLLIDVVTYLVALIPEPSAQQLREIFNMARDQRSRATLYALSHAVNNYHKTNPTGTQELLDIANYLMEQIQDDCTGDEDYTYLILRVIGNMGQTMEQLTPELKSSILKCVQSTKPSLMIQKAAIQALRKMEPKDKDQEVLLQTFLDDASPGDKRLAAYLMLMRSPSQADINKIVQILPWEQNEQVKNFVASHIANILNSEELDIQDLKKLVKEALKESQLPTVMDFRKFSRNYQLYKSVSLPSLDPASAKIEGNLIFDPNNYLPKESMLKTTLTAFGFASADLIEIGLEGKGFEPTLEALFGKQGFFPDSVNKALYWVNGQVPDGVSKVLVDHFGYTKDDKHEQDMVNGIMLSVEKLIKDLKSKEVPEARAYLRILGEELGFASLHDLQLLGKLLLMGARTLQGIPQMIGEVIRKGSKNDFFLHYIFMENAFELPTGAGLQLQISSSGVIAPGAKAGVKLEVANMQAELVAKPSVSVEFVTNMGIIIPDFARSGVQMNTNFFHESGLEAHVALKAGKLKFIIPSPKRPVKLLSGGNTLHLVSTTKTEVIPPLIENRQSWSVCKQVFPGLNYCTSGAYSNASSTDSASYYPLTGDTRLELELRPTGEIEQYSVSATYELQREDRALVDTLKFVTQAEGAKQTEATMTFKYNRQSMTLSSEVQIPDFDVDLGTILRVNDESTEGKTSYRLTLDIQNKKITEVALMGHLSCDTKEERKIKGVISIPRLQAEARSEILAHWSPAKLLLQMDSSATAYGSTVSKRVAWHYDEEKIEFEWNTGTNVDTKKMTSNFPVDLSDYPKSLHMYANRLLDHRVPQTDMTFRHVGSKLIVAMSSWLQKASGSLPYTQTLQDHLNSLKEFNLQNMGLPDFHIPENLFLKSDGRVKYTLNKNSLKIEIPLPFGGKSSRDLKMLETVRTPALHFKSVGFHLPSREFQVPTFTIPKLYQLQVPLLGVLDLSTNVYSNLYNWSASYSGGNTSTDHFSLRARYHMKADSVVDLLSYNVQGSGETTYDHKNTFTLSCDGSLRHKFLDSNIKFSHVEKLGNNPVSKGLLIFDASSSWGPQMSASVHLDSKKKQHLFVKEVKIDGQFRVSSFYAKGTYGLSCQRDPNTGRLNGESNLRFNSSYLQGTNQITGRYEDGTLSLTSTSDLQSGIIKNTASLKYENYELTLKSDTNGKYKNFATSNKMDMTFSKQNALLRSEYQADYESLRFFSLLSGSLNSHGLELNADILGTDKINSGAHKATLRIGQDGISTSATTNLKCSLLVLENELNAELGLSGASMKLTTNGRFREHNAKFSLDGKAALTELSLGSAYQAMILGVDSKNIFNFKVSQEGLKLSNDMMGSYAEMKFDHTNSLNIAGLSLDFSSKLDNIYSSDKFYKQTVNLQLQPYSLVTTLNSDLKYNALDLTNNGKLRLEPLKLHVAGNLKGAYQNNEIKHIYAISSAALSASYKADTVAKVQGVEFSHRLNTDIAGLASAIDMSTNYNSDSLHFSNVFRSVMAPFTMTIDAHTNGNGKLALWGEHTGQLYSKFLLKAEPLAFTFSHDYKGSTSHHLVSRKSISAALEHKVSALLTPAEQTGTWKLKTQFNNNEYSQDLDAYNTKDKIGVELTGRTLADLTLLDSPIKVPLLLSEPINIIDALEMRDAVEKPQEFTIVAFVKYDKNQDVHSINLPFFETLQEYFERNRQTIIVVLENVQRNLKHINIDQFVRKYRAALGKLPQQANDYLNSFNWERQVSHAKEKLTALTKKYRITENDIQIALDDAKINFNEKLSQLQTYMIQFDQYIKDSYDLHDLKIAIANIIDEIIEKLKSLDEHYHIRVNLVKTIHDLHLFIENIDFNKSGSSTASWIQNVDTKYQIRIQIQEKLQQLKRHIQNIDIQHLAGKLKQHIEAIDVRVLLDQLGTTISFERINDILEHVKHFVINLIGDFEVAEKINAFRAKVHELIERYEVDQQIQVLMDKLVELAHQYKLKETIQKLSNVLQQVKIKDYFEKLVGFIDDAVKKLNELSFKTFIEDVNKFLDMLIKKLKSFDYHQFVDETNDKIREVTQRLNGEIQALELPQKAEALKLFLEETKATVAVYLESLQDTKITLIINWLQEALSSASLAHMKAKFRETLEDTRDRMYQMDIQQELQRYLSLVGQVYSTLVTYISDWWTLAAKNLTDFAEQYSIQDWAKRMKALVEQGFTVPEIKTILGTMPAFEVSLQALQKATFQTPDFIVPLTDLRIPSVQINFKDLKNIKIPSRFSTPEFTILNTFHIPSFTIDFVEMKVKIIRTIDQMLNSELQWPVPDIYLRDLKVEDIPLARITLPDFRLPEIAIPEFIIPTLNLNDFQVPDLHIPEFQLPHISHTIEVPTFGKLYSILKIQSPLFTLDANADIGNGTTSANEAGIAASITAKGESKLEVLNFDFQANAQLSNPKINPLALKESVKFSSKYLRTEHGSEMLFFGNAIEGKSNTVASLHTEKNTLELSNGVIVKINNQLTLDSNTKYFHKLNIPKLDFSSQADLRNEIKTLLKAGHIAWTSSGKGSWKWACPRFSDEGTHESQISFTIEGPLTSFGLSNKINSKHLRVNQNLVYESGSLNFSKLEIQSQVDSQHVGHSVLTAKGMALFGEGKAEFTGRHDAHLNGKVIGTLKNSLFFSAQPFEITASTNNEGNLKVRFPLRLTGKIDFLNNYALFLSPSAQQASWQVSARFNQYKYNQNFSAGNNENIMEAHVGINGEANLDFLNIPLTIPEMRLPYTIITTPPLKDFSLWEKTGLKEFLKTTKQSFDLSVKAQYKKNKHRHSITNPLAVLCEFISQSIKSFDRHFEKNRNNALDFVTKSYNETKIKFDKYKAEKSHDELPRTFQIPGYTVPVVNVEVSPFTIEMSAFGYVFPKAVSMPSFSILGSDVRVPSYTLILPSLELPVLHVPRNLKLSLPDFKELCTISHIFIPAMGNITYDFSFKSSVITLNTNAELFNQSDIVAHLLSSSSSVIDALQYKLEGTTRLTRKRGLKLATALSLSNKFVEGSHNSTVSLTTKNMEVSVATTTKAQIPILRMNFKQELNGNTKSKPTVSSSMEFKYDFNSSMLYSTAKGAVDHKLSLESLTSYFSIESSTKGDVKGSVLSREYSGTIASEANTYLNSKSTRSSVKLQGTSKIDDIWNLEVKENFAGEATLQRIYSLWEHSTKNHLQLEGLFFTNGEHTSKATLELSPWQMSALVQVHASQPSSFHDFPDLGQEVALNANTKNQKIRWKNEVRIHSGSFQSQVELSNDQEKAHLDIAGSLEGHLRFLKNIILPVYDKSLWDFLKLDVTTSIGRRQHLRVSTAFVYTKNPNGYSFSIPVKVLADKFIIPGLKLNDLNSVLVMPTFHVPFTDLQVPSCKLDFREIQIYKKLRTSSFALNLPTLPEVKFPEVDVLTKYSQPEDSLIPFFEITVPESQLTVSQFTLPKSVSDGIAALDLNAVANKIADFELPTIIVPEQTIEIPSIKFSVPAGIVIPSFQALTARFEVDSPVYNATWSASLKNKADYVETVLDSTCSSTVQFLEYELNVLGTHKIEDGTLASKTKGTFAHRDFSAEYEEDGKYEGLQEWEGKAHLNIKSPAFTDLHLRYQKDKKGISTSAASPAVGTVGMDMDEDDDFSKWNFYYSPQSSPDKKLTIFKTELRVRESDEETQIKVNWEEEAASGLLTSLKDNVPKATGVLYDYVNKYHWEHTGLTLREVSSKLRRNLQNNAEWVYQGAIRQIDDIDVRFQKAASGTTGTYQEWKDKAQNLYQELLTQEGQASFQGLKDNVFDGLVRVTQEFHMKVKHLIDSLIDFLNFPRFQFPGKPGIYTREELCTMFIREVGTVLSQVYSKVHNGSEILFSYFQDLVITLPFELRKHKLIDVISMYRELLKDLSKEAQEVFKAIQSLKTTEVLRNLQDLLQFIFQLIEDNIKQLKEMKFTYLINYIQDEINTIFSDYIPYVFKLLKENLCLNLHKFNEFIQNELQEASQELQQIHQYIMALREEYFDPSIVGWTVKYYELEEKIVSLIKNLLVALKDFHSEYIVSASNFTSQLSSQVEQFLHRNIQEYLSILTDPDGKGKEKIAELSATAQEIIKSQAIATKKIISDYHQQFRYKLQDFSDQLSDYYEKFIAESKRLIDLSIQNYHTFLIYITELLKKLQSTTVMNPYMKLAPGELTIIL

As for “human low density lipoprotein receptor (hLDLR) (from UniProt P01130 22-860)”, the reduction of serum cholesterol in LAHB mice after AAV8.TBG.hLDLR (% reduction of serum cholesterol) was found to be 30.
